Measured values from patent publication US10106589B2, “Compositions and methods for immunomodulation” (FUNDACIO INSTITUT D'INVESTIGACIO BIOMEDICA DE BELLVITGE …, priority 2011, dated 2018).
“Also recorded” adds a separate entry of the source.

What was measured:
human Mo-DCs [1] = experiment: Flow cytometry of cell surface markers on treated, LPS-matured Mo-DCs; settings: CCP6-based peptides at 100 μM
human Mo-DCs [2] = experiment: Quantitative RT-PCR of CCR7, IDO, BIC-1, SOD2 in Mo-DCs; type: cell-based; settings: RT-qPCR; pretreated, LPS-matured Mo-DCs
Method: Mo-DCs (10^6/condition) were harvested at day 7 and the mRNA was extracted using the RNeasy RNA Isolation kit (Qiagen) and incubated with RNase-free DNase I (Ambion, Austin, Tex.) according to the manufacturer's protocol. A two-step real-time RT-PCR technique was used to determine the relative mRNA levels of human CCR7, BIC-1, IDO and SOD2. Reverse transcription reactions were performed with 500 ng of total RNA using the Omniscript RT kit (Qiagen). Quantification of mRNA levels was performed by real-time polymerase chain reaction (PCR) with the use of the LightCycler technology (Roche Molecular Biochemicals, Indianapolis, Ind.). The following primers were used: CCR7-f (5′-TGGGCATCTGGATACTAGC-3′) (SEQ ID NO:6), CCR7-r (5′-AAGAAAGGGTTGACGCAGC-3′) (SEQ ID NO:7); IDO-f (5′-[…]-3′) (SEQ ID NO:8); IDO-r (5′-[…]-3′) (SEQ ID NO:9); BIC-1-f (5′-[…]-3′) (SEQ ID NO:10), BIC-1-r (5′-[…]-3′) (SEQ ID NO:11); SOD2-f (5′-GACAAACCTCAGCCCTAAC-3′) (SEQ ID NO:12), SOD2-r (5′-[…]-3′) (SEQ ID NO:13), yielding products of 435, 227, 296 bp, and 248 bp, respectively. These gene-specific primer pairs were designed using Oligo 4.0 and Primer 3 software packages (MBI, Cascade, Colo.) and selected to prevent primer-dimer formation.
All samples were normalized with the use of the following primer set for the constitutively expressed human cyclophilin gene: CypA-f (5′-[…]-3′) (SEQ ID NO:14) and CypA-r (5′-CACCACATGCTTGCCATCC-3′) (SEQ ID NO:15) (Pluvinet R. et al., 2004, Blood. 104: 3642-3646). All primers were purchased from Bonsai Technologies (Copenhagen, Denmark).
PCR amplifications were performed in a 20 μl volume containing 2 μl ready-to-use reaction mix, 10×DNA Master SYBR Green I (Roche Molecular Biochemicals); MgCl2 (3 mM for CCR7; 4 mM for BIC-1 and SOD2, and 5 mM for IDO); 0.15 μM of each primer; 5% dimethyl sulfoxide (DMSO); and 75 ng cDNA as template. The amplification program used an initial denaturation at 95° C. for 10 min, followed by 45 cycles: 95° C. for 1 sec; 58° C. (CCR7 and SOD2)/60° C. (BIC-1 and IDO) for 5 sec; 72° C. for 10 sec.

allogeneic CD3+ T cells = experiment: Mixed leukocyte reaction ([3H]-thymidine incorporation); type: cell-based, human; settings: Mo-DCs pre-incubated and matured with LPS; DC:T 1:40, 1:80, 1:160; 5 days
Method: CD3^+ T cells (10^5/well) and C4BP-treated (α7β1 and α7β0), or Factor H-treated, and LPS-activated Mo-DCs were seeded in a 96-well round-bottom plate at various DC:T cell ratios (1:40, 1:80 and 1:160) and cultured in X-VIVO 15 medium (Biowittaker, Walkersville, Md.) supplemented with 100 μg/ml of streptomycin, 100 IU/ml of penicillin and 2 mM L-glutamine (all from Invitrogen) plus 2% Human AB Serum. Allospecific proliferation was measured after 5 days of incubation. At day 4, the […] [^3H]-thymidine (1 μCi/well, Perkin Elmer, Boston, Mass.) was added, followed by incubation for another 16 h. Labeled cells were then harvested onto glass-fiber filters with a Filtermate Harvester (Packard, Meriden, Conn.), and the T cell proliferation rate was determined by the amount of [^3H]-thymidine incorporation, which was measured in a TopCount NXT counter (Packard). Results are reported as the mean cpm±SD of thymidine incorporation in quadruplicate culture wells.

human Mo-DCs [3] = experiment: Flow cytometry of cell surface markers on treated, LPS-matured Mo-DCs; type: cell-based; settings: treated throughout differentiation and maturation, LPS-matured; for CD1a expression / CD80 expression / CD83 expression / CD86 expression: dose-dependent; for expression of surface markers (CD14, HLA-DR, CD40, CD80, CD83, CD86, CD1a): vs untreated mDC
Method: Peripheral blood mononuclear cells (PBMCs) were obtained from buffy coat preparations belonging to healthy donors from the Blood and Tissue Bank (Barcelona, Spain) after Ficoll-Paque™ density centrifugation (GE Healthcare Bio-Sciences AB; Uppsala, Sweden). Monocytes were purified by two different methods: 1) Cells were plated at 1×10^6 cells/ml in 60 mm culture plates (Corning, Spain) in RPMI without serum and allowed to adhere for 2 h at 37° C. in 5% CO2. The non-adherent cells were removed by washing in PBS. […] 2) Cells were purified using colloidal super-paramagnetic microbeads conjugated with monoclonal mouse anti-human CD14 antibodies (MACS, Miltenyi Biotec, Auburn, Calif., or EasySep® Positive Selection Cocktail, StemCell Technologies, Grenoble, France). The purity of CD14^+ cells was tested by CD14 staining and flow cytometry analysis (>90% CD14^+ cells). Monocyte-derived DCs (Mo-DCs) were generated supplementing the monocyte cultures with complete RPMI 1640 medium plus GM-CSF (800 UI/ml) and IL-4 (500 UI/ml) (both from Gentaur, Kampenhout, Belgium) at day 0 and day 3 of culture. For DC maturation, at day 5 iDCs were further stimulated for 48 h with 5 μg/ml LPS (Escherichia coli 055.B5, Sigma L2880, Copenhagen, Denmark).
Cell surface phenotypes were analyzed using the following monoclonal antibodies: FITC-conjugated anti-HLA-DR (Immu-357), FITC-conjugated anti-CD83 (HB15a), FITC-conjugated anti-CD14 (RMO52), PE-conjugated anti-CD40 (MAB89), PE-conjugated anti-CD1a (BL6), PE-conjugated anti-CD80 (MAB104), PE-conjugated anti-CD86 (HA5.2B7) (all from Beckman-Coulter), Alexa Fluor 488-conjugated anti-CCR7 (TG8/CCR7, Biolegend, San Diego, Calif.), and the respective isotype controls from the same commercial sources. After washing with PBS, cells were subsequently stained with 3 μl MoAb/10^5 cells in 100 μl of FACS buffer (PBS containing 1% BSA and 0.1% sodium azide) for 20 min at room temp. Stained cells were analysed using a FACScalibur (Becton Dickinson). Mo-DCs were gated according to forward scatter (FSC) and side scatter (SSC) parameters. The results were analysed using CellQuestPro software (Becton Dickinson).
Both the different C4BP isoforms (α7β1, α7β0 and α6β0), and Factor H were added at 2, 5 and 10 μg/ml throughout Mo-DC differentiation, maturation, or both. Namely, for the differentiation assays the proteins were added at day 0 and replenished at day 3. For the maturation assays the proteins were added at day 5, either alone or combined with LPS. Finally, for the differentiation plus maturation assays the proteins were added at days 0, 3 and 5 (at the last time point, combined with LPS).

human Mo-DCs [4] = experiment: Scanning electron microscopy of Mo-DC surface morphology; type: cell-based; settings: SEM after 48 h LPS maturation
Method: Monocytes were seeded on glass slides covered with either poly-L-lysine (25 μg/ml) or fibronectin (42 μg/ml), cultured for 5 days in complete RPMI medium supplemented with 800 U/ml GM-CSF, 500 U/ml IL-4, and the C4BP isoforms α7β1, α7β0, or Factor H (10 μg/ml), and further stimulated with LPS for 48 hours in the same medium. The resulting DCs were fixed in 1% paraformaldehyde and 1.25% glutaraldehyde in cacodylate buffer for 2 h. Finally, the cells were post-fixed in 1% OsO4, and dehydrated with graded series of ethanol followed by acetone. After dehydration the cells were dried in a critical-point dryer and coated with gold before observation by scanning electron microscopy (Zeiss DSM940A).

Ac-HRKSRPANHSVYFYGDEISFSSHETSRFSA-NH2 [PS6-02]
CD83 upregulation on LPS-matured Mo-DCs (human Mo-DCs [1]): seemed to prevent CD83 upregulation
toxicity to the DCs (human Mo-DCs [1]): toxic

PS6-03: SEQ ID NO:4 EISFSSH ETSRFSAISQ GDGTWSPRTP SSG, CCP6-derived peptide (EISFSSHETSRFSAISQGDGTWSPRTPSSG; PS6-03)
CD83 upregulation on LPS-matured Mo-DCs (human Mo-DCs [1]): seemed to prevent CD83 upregulation

PS6-04: SEQ ID NO:5 ITQHRK SRPANHSV, 14-mer CCP6-derived peptide (ITQHRKSRPANHSV; PS6-04)
CD83 upregulation on LPS-matured Mo-DCs (human Mo-DCs [1]): comparable effect than its C4BP α6β0 counterpart

B1: C4BP α7β0: C4BP isoform exclusively composed of 7 α-chains, purified from pooled human plasma (protein, UniProt P04003 49-597, looked up)
C4b-binding protein alpha …: NCGPPPTLSFAAPMDITLTETRFKTGTTLKYTCLPGYVRSHSTQTLTCNSDGEWVYNTFCIYKRCRHPGELRNGQVEIKTDLSFGSQIEFSCSEGFFLIGSTTSRCEVQDRGVGWSHPLPQCEIVKCKPPPDIRNGRHSGEENFYAYGFSVTYSCDPRFSLLGHASISCTVENETIGVWRPSPPTCEKITCRKPDVSHGEMVSGFGPIYNYKDTIVFKCQKGFVLRGSSVIHCDADSKWNPSPPACEPNSCINLPDIPHASWETYPRPTKEDVYVVGTVLRYRCHPGYKPTTDEPTTVICQKNLRWTPYQGCEALCCPEPKLNNGEITQHRKSRPANHCVYFYGDEISFSCHETSRFSAICQGDGTWSPRTPSCGDICNFPPKIAHGHYKQSSSYSFFKEEIIYECDKGYILVGQAKLSCSYSHWSAPAPQCKALCRKPELVNGRLSVDKDQYVEPENVTIQCDSGYGVVGPQSITCSGNRTWYPEVPKCEWETPEGCEQVLTGKRLMQCLPNPEDVKMALEVYKLSLEIEQLELQRDSARQSTLDKEL
BIC-1 transcript level (human Mo-DCs [2]): significantly down-regulated
CCR7 transcript level (human Mo-DCs [2]): significantly down-regulated
IDO transcript level (human Mo-DCs [2]): significantly down-regulated
allogeneic T cell proliferation (allogeneic CD3+ T cells): significantly less T cell proliferation
CD1a expression (human Mo-DCs [3]): significantly down-regulated
CD80 expression (human Mo-DCs [3]): significantly down-regulated
CD83 expression (human Mo-DCs [3]): significantly down-regulated
CD86 expression (human Mo-DCs [3]): significantly down-regulated
expression of surface markers (CD14, HLA-DR, CD40, CD80, CD83, CD86, CD1a) (human Mo-DCs [3]): inhibit up-regulation
surface morphology of Mo-DCs (human Mo-DCs [4]): absence of long dendritic projections; also recorded: reversed the “porcupine like” DC morphology

B2: C4BP α6β0: polymeric recombinant full-length C4BP of 6 α-chains, expressed in eukaryotic cells (protein, UniProt P04003 49-597, looked up)
C4b-binding protein alpha …: NCGPPPTLSFAAPMDITLTETRFKTGTTLKYTCLPGYVRSHSTQTLTCNSDGEWVYNTFCIYKRCRHPGELRNGQVEIKTDLSFGSQIEFSCSEGFFLIGSTTSRCEVQDRGVGWSHPLPQCEIVKCKPPPDIRNGRHSGEENFYAYGFSVTYSCDPRFSLLGHASISCTVENETIGVWRPSPPTCEKITCRKPDVSHGEMVSGFGPIYNYKDTIVFKCQKGFVLRGSSVIHCDADSKWNPSPPACEPNSCINLPDIPHASWETYPRPTKEDVYVVGTVLRYRCHPGYKPTTDEPTTVICQKNLRWTPYQGCEALCCPEPKLNNGEITQHRKSRPANHCVYFYGDEISFSCHETSRFSAICQGDGTWSPRTPSCGDICNFPPKIAHGHYKQSSSYSFFKEEIIYECDKGYILVGQAKLSCSYSHWSAPAPQCKALCRKPELVNGRLSVDKDQYVEPENVTIQCDSGYGVVGPQSITCSGNRTWYPEVPKCEWETPEGCEQVLTGKRLMQCLPNPEDVKMALEVYKLSLEIEQLELQRDSARQSTLDKEL
BIC-1 transcript level (human Mo-DCs [2]): significantly down-regulated
CCR7 transcript level (human Mo-DCs [2]): significantly down-regulated
IDO transcript level (human Mo-DCs [2]): significantly down-regulated
CD1a expression (human Mo-DCs [3]): significantly down-regulated
CD80 expression (human Mo-DCs [3]): significantly down-regulated
CD83 expression (human Mo-DCs [3]): significantly down-regulated
CD86 expression (human Mo-DCs [3]): significantly down-regulated
expression of surface markers (CD14, HLA-DR, CD40, CD80, CD83, CD86, CD1a) (human Mo-DCs [3]): inhibit up-regulation
surface morphology of Mo-DCs (human Mo-DCs [4]): reversed the “porcupine like” DC morphology
